For four substances, percentage of ligand sharing pixel localisation with its receptor and percentage of ligand signal colocalising with its receptor results are on record in article PMC7350415.

Assay [1] concerns the target ovine CD27 (OaCD27), full length, C-terminally V5 tagged, on transfected HEK293 cells (Ovis aries). Briefly: immunostaining of cells or tissue; HEK293 cells transfected with the V5-tagged receptor incubated with 10 μg of purified ligand for 15 min at 4 °C, then fixed; ligand detected with anti-ovine Fc antibody, receptor with anti-V5; confocal microscopy, pixel colocalisation in 25-40 cells.

The target of assay [2] is ovine OX40 (OaOX40), full length, C-terminally V5 tagged, on transfected HEK293 cells (Ovis aries). Described as above.
In assay [3] the target is ovine CD27 (OaCD27), full length, C-terminally V5 tagged, on transfected HEK293 cells (Ovis aries). Briefly: immunostaining of cells or tissue; HEK293 cells transfected with the V5-tagged receptor incubated with conditioned media from adenovirus-infected cells for 15 min, then fixed; ligand detected with anti-Fc antibody, receptor with anti-V5; confocal microscopy, pixel colocalisation in 25-40 cells.

Assay [4] deals with ovine OX40 (OaOX40), full length, C-terminally V5 tagged, on transfected HEK293 cells (Ovis aries). Described as above.

Take “purified recombinant ovine CD70 (rOaCD70), baculovirus-expressed: ovine IgG1 Fc - isoleucine zipper - predicted extracellular domain of ovine CD70 (Fc fusion)”: in assay [1], the percentage of ligand sharing pixel localisation with its receptor was determined as 72.8%.

As to “purified recombinant ovine OX40L (rOaOX40L), baculovirus-expressed: ovine IgG1 Fc - isoleucine zipper - predicted extracellular domain of ovine OX40L (Fc fusion)”, the percentage of ligand sharing pixel localisation with its receptor in assay [2] was 59.3%.

For “secreted rOaCD70 expressed from recombinant adenovirus Ad5-OaCD70 (same construct as the baculovirus protein) (Fc fusion)”, in assay [3], the percentage of ligand signal colocalising with its receptor turned out to be 73.5%.

In the case of “secreted rOaOX40L expressed from recombinant adenovirus Ad5-OaOX40L (same construct as the baculovirus protein) (Fc fusion)”, the percentage of ligand signal colocalising with its receptor in assay [4] was determined as 60.4%.
